Assay results: patent US20260098866A1 (REMEGEN, published 2026)
Each block holds one binder with its values, some of them ahead of it.

Columns and labels:
telitacicept [1] = molecular target: T1, telitacicept; experiment: competition ELISA; BLyS coated; 30 ng/ml telitacicept pre-incubated with 1000-fold diluted supernatant; telitacicept bound to BLyS read with anti-human IgG Fc-HRP
T1 construct: TACI-Fc fusion protein drug; also called Tai ai; TACI-Fc fusion protein
T1 chain: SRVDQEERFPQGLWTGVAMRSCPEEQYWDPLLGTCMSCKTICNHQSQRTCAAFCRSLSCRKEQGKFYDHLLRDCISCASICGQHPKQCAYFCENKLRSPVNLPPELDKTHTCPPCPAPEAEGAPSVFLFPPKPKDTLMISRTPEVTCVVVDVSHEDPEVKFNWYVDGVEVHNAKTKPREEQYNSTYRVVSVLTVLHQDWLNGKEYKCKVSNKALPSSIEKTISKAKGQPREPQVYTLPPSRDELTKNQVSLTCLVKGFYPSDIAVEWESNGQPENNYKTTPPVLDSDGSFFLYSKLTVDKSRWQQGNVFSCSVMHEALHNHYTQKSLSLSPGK
Description: (§1) The hybridoma cells were cultured, and the supernatants were used for enzyme-linked immunosorbent assay (ELISA). BLyS (R&D Systems) was coated on a 96-well microplate and incubated at 4° C. overnight. The plate was blocked with 300 μl of 3% BSA-PBST per well and incubated at 37° C. for 3 h. The supernatants were diluted at ratios of 10-fold, 100-fold and 1000-fold with PBST and separately incubated with 30 ng/ml telitacicept for a given period. These mixtures were then added to the 96-well plate at 100 μl per well and incubated at 37° C. for 1 h. Goat anti-human IgG Fc-HRP (1:5000 dilution) was added at 100 μl per well and incubated at 37° C. for 1 h. 100 μL of substrate per well was added for color development, and the absorbance was read at 450 nm and 655 nm. Antibodies with high activity were screened based on the difference in absorbance between 450 nm and 655 nm, respectively.

telitacicept [2] = molecular target: T1, telitacicept; experiment: BLI (Octet RH16); biotinylated 1B11D2 on SA biosensors, telitacicept as analyte; kinetic fit
Description: An Octet RH16 molecular interaction analyzer (Sartorius) was used. An appropriate amount of antibody 1B11D2 reacted with EZ-Link Sulfo-NHS-LC-LC-Biotin ([…]) at room temperature for 30 min followed by centrifugation with a Zeba spin desalting column to collect the biotinylated antibody 1B11D2.
The biotinylated antibody 1B11D2 was immobilized on Octet SA Biosensors ([…]) and telitacicept at various concentrations was used as the analyte. The detection curve was fitted by kinetic analysis to obtain the results.

telitacicept [3] = molecular target: T1, telitacicept; experiment: competition ELISA; BLyS coated; 30 ng/ml telitacicept pre-incubated with 100-fold diluted supernatant; telitacicept bound to BLyS read with anti-human IgG Fc-HRP
Description: as §1

telitacicept [4] = molecular target: T1, telitacicept; experiment: competition ELISA; BLyS coated; 30 ng/ml telitacicept pre-incubated with 10-fold diluted supernatant; telitacicept bound to BLyS read with anti-human IgG Fc-HRP
Description: as §1

Absorbance (450 nm - 655 nm) (telitacicept [1]): 0.454
Kd (telitacicept [2]): 0.325 nM
koff (telitacicept [2]): 0.000105 s⁻¹
kon (telitacicept [2]): 323000 M⁻¹ s⁻¹
Absorbance (450 nm - 655 nm) (telitacicept [3]): 0.141
Absorbance (450 nm - 655 nm) (telitacicept [4]): 0.016
B1: antibody 1B11D2 (antibody, mouse IgG1, kappa, V domains shown)
VH: EVQLQQSGPELVKPGASVKISCKTSGYTFTEFSMHWVQQSHGKSLEWIGGINPNHGGSSYNQKFKGKATLTVDKSSSTAYMELRSLTSEDSAVYYCARRGDYYGNLYYAMDYWGQGTSVTVSS
VL: SIVMTQTPKFLLVSVGDSITITCKASQSVSNDVVWYQQKPGQSPKLLIYYASNRYTGVPDRFTGSGYGTDFTFTITTVQAEDLAVYFCQQDYSSPWAFGGGTKLEIKR
notes: Mouse hybridoma antibody, purified from the culture supernatant of cell line 1B11D2-1; The printed heavy and light chains start with what looks like a leader peptide (MGWSW..., MKSQT...); also called 1B11D2-1 (hybridoma cell line / culture supernatant); TACI antibody (1B11D2)

Absorbance (450 nm - 655 nm) (telitacicept [1]): 0.443
Absorbance (450 nm - 655 nm) (telitacicept [3]): 0.242
Absorbance (450 nm - 655 nm) (telitacicept [4]): 0.082
B2: antibody 12C9F3 (antibody, mouse IgG1, kappa, V domains shown)
VH: EVQLQQSGPELVKPGASVKISCKTSGYTFTEYAMHWVKQSHGKSLEWIGGINPNHGGTSNNQKFKGKATLTVDKSSSTAYMDFRSLTSEDSAVYYCARWGTDPFFAYWGQGTLVTVSA
VL: DIVMTQSHKFMSTSVGDRVSITCKASQDVSTAVAWYQQKPGQSPKLLIYWASTRHTGVPDRFTGSGSGTDYTLTITSVQAEDLTLYYCHQHYAPPWTFGGGTKLEIKR
notes: Mouse hybridoma antibody, purified from the culture supernatant of cell line 12C9F3-1; The printed chains seem to include a leader peptide, but no cleavage site is stated; also called 12C9F3-1 (hybridoma cell line / culture supernatant)

Absorbance (450 nm - 655 nm) (telitacicept [1]): 0.448
Absorbance (450 nm - 655 nm) (telitacicept [3]): 0.215
Absorbance (450 nm - 655 nm) (telitacicept [4]): 0.057
B3: antibody 7G12F8 (antibody, mouse IgG1, kappa, V domains shown)
VH: EVQLQQSGPELVRPGASVKKSCKTSGYTFTAYALHWVKQSHGTSLEWIGGINPNHGGVSYNQKFKDKATLTVDKSSSTAYMELRSLTSEDSAVYYCARFRWDLYYGMDYWGQGTSVIVAS
VL: QIVLTQSPAIISVSSGEKVTMPCSDNSNMIYMYWNLWKPGTSPKRWIYDTSRLASGVPARFSGSGFGTSFSLTVSSMEAEDAATYYCHQRSIYSWTFGGGTKLEIKR
notes: Mouse hybridoma antibody, purified from the culture supernatant of cell line 7G12F8-1; The printed chains seem to include a leader peptide, but no cleavage site is stated; also called 7G12F8-1 (hybridoma cell line / culture supernatant)
